Earlier results on one substance are cited in PMC5053023.

This series deals with SRSF1 RS domain (Homo sapiens) (UniProt Q07955).
Sequence of UniProt Q07955 (Q07955 198-248): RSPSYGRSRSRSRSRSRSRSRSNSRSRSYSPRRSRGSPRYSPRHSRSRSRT

On to SRPK1 (from UniProt Q96SB4), for which the Kd was 0.1 µM.
